Results from IntAct's records for PubMed 25006247.

B1: Pyrin (Homo sapiens), O15553 (parent)
chain: MAKTPSDHLLSTLEELVPYDFEKFKFKLQNTSVQKEHSRIPRSQIQRARPVKMATLLVTYYGEEYAVQLTLQVLRAINQRLLAEELHRAAIQEYSTQENGTDDSAASSSLGENKPRSLKTPDHPEGNEGNGPRPYGGGAASLRCSQPEAGRGLSRKPLSKRREKASEGLDAQGKPRTRSPALPGGRSPGPCRALEGGQAEVRLRRNASSAGRLQGLAGGAPGQKECRPFEVYLPSGKMRPRSLEVTISTGEKAPANPEILLTLEEKTAANLDSATEPRARPTPDGGASADLKEGPGNPEHSVTGRPPDTAASPRCHAQEGDPVDGTCVRDSCSFPEAVSGHPQASGSRSPGCPRCQDSHERKSPGSLSPQPLPQCKRHLKQVQLLFCEDHDEPICLICSLSQEHQGHRVRPIEEVALEHKKKIQKQLEHLKKLRKSGEEQRSYGEEKAVSFLKQTEALKQRVQRKLEQVYYFLEQQEHFFVASLEDVGQMVGQIRKAYDTRVSQDIALLDALIGELEAKECQSEWELLQDIGDILHRAKTVPVPEKWTTPQEIKQKIQLLHQKSEFVEKSTKYFSETLRSEMEMFNVPELIGAQAHAVNVILDAETAYPNLIFSDDLKSVRLGNKWERLPDGPQRFDSCIIVLGSPSFLSGRRYWEVEVGDKTAWILGACKTSISRKGNMTLSPENGYWVVIMMKENEYQASSVPPTRLLIKEPPKRVGIFVDYRVGSISFYNVTARSHIYTFASCSFSGPLQPIFSPGTRDGGKNTAPLTICPVGGQGPD

Variants of: B1
Settings: with asc_human PYCARD

Variant	effect of a mutation on the interaction
K25A	disrupting interaction strength
E14A	decreasing interaction strength
H37A	with no effect
L10A	decreasing interaction strength
K35A	with no effect
E22A	increasing interaction strength
Q29A	with no effect
K3A	with no effect

The remaining lines, values ahead:

effect of a mutation on the interaction	Variant
decreasing interaction strength	R75A
increasing interaction strength	V58A
decreasing interaction strength	R42A
decreasing interaction strength	R42W
with no effect	R88A
increasing interaction strength	E63A
with no effect	A89T
with no effect	Q46A
with no effect	E84A
decreasing interaction strength	R80A
decreasing interaction strength	L71A
with no effect	R49A

Variants of: B1
Settings: with asc_human PYCARD
Remark: another data set of the same source

effect of a mutation on the interaction	Variant
with no effect	R42W
